Source: the supplement of paper PMC9170038

Experiments:
MS2 coat protein [1] = test: apparent KD of MS2 coat protein, switch ON state; designed switch direction (-1 OFF switch, 1 ON switch): -1; higher = weaker reporter binding; details: FMN input: 0 or 200 uM; Eterna round: R93 (includes R88 designs)
How it was run: (§1)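 Designed RNA switches were made by on-chip transcription from Illumina sequencing clusters and then titrated with SNAP-549-labelled MS2 coat protein. Twofold steps ran from 0.7 or 1.5 nM to 3 µM, each lasting 0.8–1.5 h early and 10–20 min late, in 100 mM Tris-HCl pH 7.5, 80 mM KCl, 4 mM MgCl2, without or with constant ligand. Apparent KD is the per-design median of normalised cluster binding-curve fits.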

MS2 coat protein [2] = test: apparent KD of MS2 coat protein, switch OFF state (with FMN for OFF switches, without FMN for ON switches); designed switch direction (-1 OFF switch, 1 ON switch): -1; higher = weaker reporter binding; details: FMN input: 0 or 200 uM; Eterna round: R93 (includes R88 designs)
How it was run: as §1

| Sequence | apparent KD of MS2 coat protein (MS2 coat protein [1]) | apparent KD of MS2 coat protein (MS2 coat protein [2]) |
| --- | --- | --- |
| AAAAAGUCAGGAUAUACAAAAGUGCGAAAGCACAAAAGGAAACAUGAGGAUCACCCAUGUAGAAGGGACAAGAA [Married to this design] | 42.3 nM | 24.2 nM |
| AAAAAGUCAGGAUAUACGGGAGUGCGAAAGCACAAAAAAAAACAUGAGGAUCACCCAUGUAGAAGGGACAAGAA [Married to this design, 61% 5] | 46.1 nM | 34.5 nM |
| AAAAAGUCAGGAUAUGCUUAUAAUAAGAAAAUUAGAGAUAUGCAGAAGGGACAUGAGGAUCACCCAUGUAAAAA [Ex 4.1] | 53.2 nM | 36.4 nM |
| AAAAAGUCAGGAUAUUCGGAUAGGAAAACGAAAACCUAUCCGAAGAAGGGACAUGAGGAUCACCCAUGUGGAAA [67% Ecls-II - Late G segment 1] | 88.7 nM | 170 nM |
| AAAAAGUGAGGAUAUACAGAUAAAAAAACGAAAAAAAAUCUGUAGAAGGCACAUGAGGAUCACCCAUGUAAAAA [Ex 4 May 3] | 43.4 nM | 39 nM |
| AAAAAGUGAGGAUAUACAUGAGGAUCACCCAUGUAAAAAAAAAAAAGGGUGGAAGAAAGUAGAAGGCACCAAAA [Ex 3 May 47] | 67.3 nM | 75.1 nM |
| AAAAAGUGAGGAUAUACAUGAGGAUCACCCAUGUAAAAGGUCAGGGUGGCGGAGGACGGUAGAAGGCGCAAAAA [Excls3-IX] | 34.5 nM | 40.2 nM |
| AAAAAGUGAGGAUAUACAUGAGGAUCACCCAUGUAAAAGGUCGCGGGAGCGGAGGACGGUAGAAGGCGCAAAAA [Excls3-VIIi] | 25.3 nM | 28.9 nM |
| AAAAAGUGAGGAUAUACAUGAGGAUCACCCAUGUGUAUAAAAAAUUACACAAAAGAAAGUAGAAGGCACUAAAA [Ex 3 Summer] | 20.3 nM | 32 nM |
| AAAAAGUGAGGAUAUACGUUAAAAAAAAAAAAAAAAAAGCAGUAGAAGGCACAUGAGGAUCACCCAUGUAAAAA [Ex4 Malc#2] | 41.3 nM | 26 nM |
| AAAAAGUGAGGAUAUCUGGAUAGGAAAAAGAAAACCUAUCCAGAGAAGGCACAUGAGGAUCACCCAUGUAAAAA [JL cataway mod 5] | 31.6 nM | 41.2 nM |
| AAAAAGUUAGGAUAUACAGAUAAAAAAACGAAAAAAAAUCUGUAGAAGGAACAUGAGGAUCACCCAUGUAAAAA [Ex 4 May 2] | 25.6 nM | 16.7 nM |
| AAAAAUGCAGGAUAUACGAACAUGUCAAAAGACGUGAAGGGACAUGAGGAUCACCCAUGUAGAAGGGUAAAGAA [JL Neck Breaker 14] | 248 nM | 46 nM |
| AAAAAUGGAGGAUAUACAUGAGGAUCACCCAUGUGUAACUAUACUAAGCACAAACCAAGUAGAAGGCCAAAAAA [Gilly Gone Silly 10 - Jieux - Exclusion 3] | 45.4 nM | 95.3 nM |
| AAAAAUGGAGGAUAUACAUGAGGAUCACCCAUGUGUGGGCAUACUAUGUGGGCGUCAGGUAGAAGGCCAAAAAA [Gilly Gone Silly 25 - Jieux - Exclusion 3] | 93.7 nM | 273 nM |
| AAAACACAUGAGGAUCACCCAUGUCAGGAUAUACGAGAAAGAAAAGAAAAGAAAAGAAGUAGAAGGGACUAGAA [Exclusion1 Malc#3] | 15.7 nM | 22.4 nM |
| AAAACACAUGAGGAUCACCCAUGUGAGGAUAUGCUAUGGAAAAUAAAAAUAAAACAUAGCAGAAGGCACAAGGA [Denovo 17] | 28 nM | 50 nM |

| Sequence | apparent KD of MS2 coat protein (MS2 coat protein [1]) | apparent KD of MS2 coat protein (MS2 coat protein [2]) |
| --- | --- | --- |
| AAAACGGCAGGAUAUACAAUUGAGAACUAGAUCGAAAAAAAACAUGAGGAUCACCCAUGUAGAAGGGCCAAAAA [Ex2 Malc#9] | 34.7 nM | 55.3 nM |
| AAAACGGCAGGAUAUACGAUUUGGAACUAGACCGAGGAACCACAUGAGGAUCACCCAUGUAGAAGGGCCAAAAA [Ex2 Malc#16] | 17.2 nM | 19.7 nM |
| AAAACGGUAGGAUAUACAAUUGGGAACUAGACCGAAAAAAAACAUGAGGAUCACCCAUGUAGAAGGGCCAAAAA [Ex2 Malc#11] | 47.8 nM | 91.2 nM |
| AAAACGUCAGGAUAUACAGAAGAGAUCACGAAAAAAAAAAAACAUGAGGAUCACCCAUGUAGAAGGGACAAAAA [Ex2 Malc#3] | 117 nM | 136 nM |
| AAAACUGGAGGAUAUACGAACAUGUCGAAAGACGUGAAGGGACAUGAGGAUCACCCAUGUAGAAGGCUAGAAAA [Mat - Exclusion 2 - JL mod - D72] | 42.5 nM | 58.4 nM |
| AAAAGGCGAGGAUAUACAUGAGGAUCACCCAUGUAAGUAAGCCUGGCUGAAACUAAAUGUAGAAGGCGCAAAAA [Mat - Exclusion 3 - Neo mod - D73] | 18.2 nM | 56.2 nM |
| AAAAGGGCAGGAUAUACAUGAGGAUCACCCAUGUGAAAAAAAAAAAAAAAAAAAAAGUGUAGAAGGGUCAAAAA [Exclusion 3 - Omei 3] | 55.3 nM | 95.4 nM |
| AAAAUACAUGAGGAUCACCCAUGUGAGGAUAUGCUAUGGAAAAUAAAAAUAAAACAUAGCAGAAGGUACAAAAA [Denovo 14] | 18.2 nM | 33.4 nM |
| AAAAUGUCAGGAUAUGCGAAGGCGUCUGACGGACGAGGAUUGCAGAAGGGACAUGAGGAUCACCCAUGUAAAAA [Mod Hyphema's Change in Energy -added G at 31] | 79.5 nM | 133 nM |
| AAAAUGUCAGGAUAUGCGAAGGCGUCUGAUAGACGAGGCUAGCAGAAGGGACAUGAGGAUCACCCAUGUGGAAA [Power strip 63% 2] | 125 nM | 128 nM |
| AAACCACAUGAGGAUCACCCAUGUCAGGAUAUGAACGAAAUAAAAUAAAAAUAAAAGUUCAGAAGGGACAAAAA [Mat - Exclusion 1 - Eli mod - D16] | 37.4 nM | 48.7 nM |
| AAACCACAUGAGGAUCACCCAUGUCAGGAUAUGCACGAAAAUAAAUAAAAAUAAAAGUGCAGAAGGGACUAAAA [66%, Wbt, 14] | 31.9 nM | 45 nM |
| AAACCACAUGAGGAUCACCCAUGUCAGGAUAUGCUAUGGAAAAUAAAAAUAAAACAUAGCAGAAGGGACAAAAA [Denovo 6] | 37.2 nM | 66 nM |
| AAAGAUGGAGGAUAUACAUGAGGAUCACCCAUGUGGAAAAUAAAUUGGGAAAAAGAAAGUAGAAGGCCAAAAAA [Ex 3 May 41] | 45.5 nM | 94.7 nM |
| AAAGGACAAGGAUAUACAUGAGGAUCACCCAUGUGUAAAACAUAAUAAAAUAACUUAUGUAGAAGGUGUCCAAA [Mat - Exclusion 3 - Eli mod - D100] | 30.5 nM | 173 nM |
| AAAGGACAUGAGGAUCACCCAUGUGAGGAUAUGACGUAAAGAAAGAAAGAAGAAAUCGUCAGAAGGCACACCUA [Mat - Exclusion 1 - Eli mod - D69] | 35.4 nM | 36.5 nM |
| AAAGGACGAGGAUAUACAUGAGGAUCACCCAUGUAAAAAACAUAAUAAAAGAACUUAUGUAGAAGGCGUCCAAA [Meechl Ex3 2 R1 - Copy of Meechl Ex3 2 from Round 1] | 53.8 nM | 318 nM |
